The text below walks through data of US20250129419A1, “REAGENTS FOR LABELING BIOMOLECULES AND USES THEREOF” (Ultima Genomics, Inc., priority 2022, published 2025).

The target of data set [1] is bovine serum albumin (BSA) (Bos taurus, UniProt P02769). Put plainly: fluorescence of BSA labeled with different ATTO 532 labeling moieties. The note with it: BSA labeled with ATTO 532, FIG. 16. An excerpt:
The effect of functional separation between an optically detectable moiety (e.g., fluorescent dye) and a substrate was investigated using bovine serum albumin (BSA). BSA was fluorescently labeled with ATTO 532 according to the following schemes: in the absence of a linker providing separation between the BSA and ATTO 532 moieties (“Atto532”), using PEG16 as a linker to provide separation between the BSA and ATTO 532 moieties (“Atto532-PEG16”), using a hyp10 moiety to provide separation between the BSA and ATTO 532 moieties (“Atto532-hyp10”), and using a hyp30 moiety to provide separation between the BSA and ATTO 532 moieties (“Atto532-hyp30”). Labeled BSA was purified from free dye using Millipore centrifugal filters.

Data set [2] in a line: evaluation of dye-labeled nucleotides including guanine (sequencing assay). The note with it: lacks the hyp10 linker. The protocol:
Nucleotides including guanine or analogs thereof may perform more poorly in sequencing applications (e.g., as described herein) in base-calling accuracy. This may be related to photoinduced electron transfer from the nucleobase to a dye linked to the nucleobase, which may quench signal emitted by the dye and thus less dynamic range of signal. Accordingly, various dye-labeled nucleotides including guanine or analogs thereof are prepared and evaluated as provided herein. Examples of such dye-labeled nucleotides include:
Several of the structures shown above include the hyp10 linker which includes the sequence Gly-Hyp-Hyp-Hyp-Hyp-Hyp-Hyp-Hyp-Hyp-Hyp-Hyp from the N-terminal end. […] The remaining dye-labeled nucleotides are evaluated in a sequencing assay, as described herein. […] Additional structures including different numbers of hydroxyprolines, including hyp20 and hyp30 moieties, may also be incorporated into fluorescent labeling reagents.

Sequence of bovine serum albumin (BSA) (P02769 25-607): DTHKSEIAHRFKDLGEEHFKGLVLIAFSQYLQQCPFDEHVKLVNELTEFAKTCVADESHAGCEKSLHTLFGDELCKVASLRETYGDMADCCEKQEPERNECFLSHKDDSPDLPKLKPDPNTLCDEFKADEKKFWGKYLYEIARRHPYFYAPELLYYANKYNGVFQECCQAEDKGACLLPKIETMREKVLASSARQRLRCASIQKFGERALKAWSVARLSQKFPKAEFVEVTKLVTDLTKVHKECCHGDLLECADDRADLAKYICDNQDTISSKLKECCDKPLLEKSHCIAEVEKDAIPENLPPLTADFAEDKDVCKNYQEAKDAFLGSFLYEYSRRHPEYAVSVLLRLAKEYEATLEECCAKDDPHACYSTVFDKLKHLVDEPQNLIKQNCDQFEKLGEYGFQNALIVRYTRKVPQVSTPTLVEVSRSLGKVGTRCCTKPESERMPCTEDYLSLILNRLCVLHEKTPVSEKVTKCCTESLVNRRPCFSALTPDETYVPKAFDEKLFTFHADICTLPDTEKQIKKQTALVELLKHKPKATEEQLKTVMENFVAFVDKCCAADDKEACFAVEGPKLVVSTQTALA

With “Atto532-PEG16: BSA labeled with ATTO 532 using PEG16 as a linker [reference compound]”, the “self-quenching on BSA protein” value in data set [1] was “did not improve quenching over ATTO 532 alone”.

For the compound `CCN1CCCc2cc3c(cc21)C(C)(C)C1=CC(=[N+](C)C)C=CC1=C3c1ccccc1C(=O)N(C)CCCC(=O)NC(CS(=O)(=O)[O-])C(=O)NCCSSCCC(=O)NCC#Cc1cn([C@H]2C[C@@H](O)[C@@H](COP(=O)(O)OP(=O)(O)OP(=O)(O)O)O2)c2nc(N)[nH]c(=O)c12` (some centres unmarked) [G4], the quenching entry in data set [2] is given as “highly quenched”.
